In paper PMC10394140:

Biological target: Re-PAX5 P80R (Homo sapiens, UniProt Q02548 1-391, P80R)
Test: EMSA

Re-PAX5 P80R, sequence (Q02548 whole entry P80R): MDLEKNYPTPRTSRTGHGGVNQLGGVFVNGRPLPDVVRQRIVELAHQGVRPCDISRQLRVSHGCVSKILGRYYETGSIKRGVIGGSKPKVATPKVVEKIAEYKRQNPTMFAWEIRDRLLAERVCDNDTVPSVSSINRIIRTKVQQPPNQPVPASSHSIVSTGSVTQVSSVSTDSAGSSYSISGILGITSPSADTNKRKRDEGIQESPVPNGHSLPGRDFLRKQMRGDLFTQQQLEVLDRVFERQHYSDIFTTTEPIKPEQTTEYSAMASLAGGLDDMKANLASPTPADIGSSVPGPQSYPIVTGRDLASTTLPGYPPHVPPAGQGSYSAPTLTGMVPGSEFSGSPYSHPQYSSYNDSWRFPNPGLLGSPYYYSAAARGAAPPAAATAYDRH

B1: Probe-1 (GINS1 promoter site1) (dsDNA)
DNA 1: GGTGCGGTGGCTCACGCTGTAATTCC
DNA 2: GGAATTACAGCGTGAGCCACCGCACC
- binding result: no binding
